# Source: paper PMC9976904, “eIF4A1-dependent mRNAs employ purine-rich 5’UTR sequences to activate localised eIF4A1-unwinding through eIF4A1-multimerisation to facilitate translation”
# Biological target: eIF4A1 DQAD (human, UniProt P60842 1-406, E183Q)
# Assay: EMSA; silvestrol; affinity similar to wt; 20 mM HEPES/KOH pH 7.5, 100 mM KCl, 1 mM TCEP, 1% DMSO, 2 mM AMPPNP/MgCl2, 25 C, 60 min; EMSA gels 6-7% acrylamide-TB, 0.5x TB
# Settings: protein: recombinant; tags: N-terminal 6xHis-SUMO, cleaved; label: FAM or 5' Dy780
# Chain of eIF4A1 DQAD (P60842 whole entry E183Q): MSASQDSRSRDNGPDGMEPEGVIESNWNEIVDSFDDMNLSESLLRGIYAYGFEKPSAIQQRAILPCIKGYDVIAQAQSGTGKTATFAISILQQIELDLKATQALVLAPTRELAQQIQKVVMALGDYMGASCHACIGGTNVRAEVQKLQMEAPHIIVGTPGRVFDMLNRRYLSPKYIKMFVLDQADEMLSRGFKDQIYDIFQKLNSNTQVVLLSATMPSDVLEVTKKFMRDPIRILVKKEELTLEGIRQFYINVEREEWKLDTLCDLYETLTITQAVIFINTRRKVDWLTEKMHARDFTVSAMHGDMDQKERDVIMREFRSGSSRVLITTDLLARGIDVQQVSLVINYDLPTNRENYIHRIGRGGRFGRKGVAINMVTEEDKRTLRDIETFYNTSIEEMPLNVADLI
binder,measurement,value
AGAGAGAGAGAGAGAGAGAG (ssRNA) [AG-RNA (20 nt)],binding result,binds
